# Data from paper PMC3266934, “The Murine Coronavirus Hemagglutinin-esterase Receptor-binding Site: A Major Shift in Ligand Specificity through Modest Changes in Architecture” (PLoS Pathogens, 2012).
# Where a chain is given by its changes, count along the chain named.
# B1: MHV-S HE ectodomain (mouse hepatitis virus strain S hemagglutinin-esterase, residues 25-403), released from HE-Fc by thrombin cleavage (domain or fragment)
# chain: FNEPLNIVSHLNDDWFLFGDSRSDCTYVENNGHPKLDWLDLDPKLCNSGRISAKSGNSLFRSFHFIDFYNYSGEGDQVIFYEGVNFSPSHGFKCLAYGDNKRWMGNKARFYARVYEKMAQYRSLSFVNVSYAYGGNAKPTSICKDKTLTLNNPTFISKESNYVDYYYESEANFTLQGCDEFIVPLCVFNGHSKGSSSDPANKYYTDSQSYYNMDTGVLYGFNSTLDVGNTVQNPGLDLTCRYLALTPGNYKAVSLEYLLSLPSKAICLRKPKSFMPVQVVDSRWNSTRQSDNMTAVACQLPYCFFRNTSADYSGGTHDVHHGDFHFRQLLSGLLYNVSCIAQQGAFVYNNVSSSWPAYGYGHCPTAANIGYMAPVCIYD
# notes: also called free MHV-S HE; not shown: Fc (human IgG1), C-terminal, cleaved
# B2: MHV-S HE^0 ectodomain (esterase-inactive, Ser45 replaced by Ala, residues 25-403), released from HE^0-Fc by thrombin cleavage (domain or fragment)
# chain: B1 chain with S21A
# notes: not shown: Fc (human IgG1), C-terminal, cleaved
# Target: the molecule itself
# Test: crystal structure; crystals of the thrombin-released ectodomain, space group P2(1)2(1)2(1), two HE molecules in the asymmetric unit; free HE (2.1 Å) and HE^0 soaked with a sialic acid receptor analogue (2.5 Å); 0.2 M KH2PO4, 0.2 M sodium malonate, 15% PEG3350, 18°C
row,Protein,binding result
1,B1,binds
2,B2,binds
